The target in the test is human CD205 (human, UniProt O60449 28-1722). Description: cell-based or functional assay.
Sequence of human CD205 (O60449 28-1722 limits assumed): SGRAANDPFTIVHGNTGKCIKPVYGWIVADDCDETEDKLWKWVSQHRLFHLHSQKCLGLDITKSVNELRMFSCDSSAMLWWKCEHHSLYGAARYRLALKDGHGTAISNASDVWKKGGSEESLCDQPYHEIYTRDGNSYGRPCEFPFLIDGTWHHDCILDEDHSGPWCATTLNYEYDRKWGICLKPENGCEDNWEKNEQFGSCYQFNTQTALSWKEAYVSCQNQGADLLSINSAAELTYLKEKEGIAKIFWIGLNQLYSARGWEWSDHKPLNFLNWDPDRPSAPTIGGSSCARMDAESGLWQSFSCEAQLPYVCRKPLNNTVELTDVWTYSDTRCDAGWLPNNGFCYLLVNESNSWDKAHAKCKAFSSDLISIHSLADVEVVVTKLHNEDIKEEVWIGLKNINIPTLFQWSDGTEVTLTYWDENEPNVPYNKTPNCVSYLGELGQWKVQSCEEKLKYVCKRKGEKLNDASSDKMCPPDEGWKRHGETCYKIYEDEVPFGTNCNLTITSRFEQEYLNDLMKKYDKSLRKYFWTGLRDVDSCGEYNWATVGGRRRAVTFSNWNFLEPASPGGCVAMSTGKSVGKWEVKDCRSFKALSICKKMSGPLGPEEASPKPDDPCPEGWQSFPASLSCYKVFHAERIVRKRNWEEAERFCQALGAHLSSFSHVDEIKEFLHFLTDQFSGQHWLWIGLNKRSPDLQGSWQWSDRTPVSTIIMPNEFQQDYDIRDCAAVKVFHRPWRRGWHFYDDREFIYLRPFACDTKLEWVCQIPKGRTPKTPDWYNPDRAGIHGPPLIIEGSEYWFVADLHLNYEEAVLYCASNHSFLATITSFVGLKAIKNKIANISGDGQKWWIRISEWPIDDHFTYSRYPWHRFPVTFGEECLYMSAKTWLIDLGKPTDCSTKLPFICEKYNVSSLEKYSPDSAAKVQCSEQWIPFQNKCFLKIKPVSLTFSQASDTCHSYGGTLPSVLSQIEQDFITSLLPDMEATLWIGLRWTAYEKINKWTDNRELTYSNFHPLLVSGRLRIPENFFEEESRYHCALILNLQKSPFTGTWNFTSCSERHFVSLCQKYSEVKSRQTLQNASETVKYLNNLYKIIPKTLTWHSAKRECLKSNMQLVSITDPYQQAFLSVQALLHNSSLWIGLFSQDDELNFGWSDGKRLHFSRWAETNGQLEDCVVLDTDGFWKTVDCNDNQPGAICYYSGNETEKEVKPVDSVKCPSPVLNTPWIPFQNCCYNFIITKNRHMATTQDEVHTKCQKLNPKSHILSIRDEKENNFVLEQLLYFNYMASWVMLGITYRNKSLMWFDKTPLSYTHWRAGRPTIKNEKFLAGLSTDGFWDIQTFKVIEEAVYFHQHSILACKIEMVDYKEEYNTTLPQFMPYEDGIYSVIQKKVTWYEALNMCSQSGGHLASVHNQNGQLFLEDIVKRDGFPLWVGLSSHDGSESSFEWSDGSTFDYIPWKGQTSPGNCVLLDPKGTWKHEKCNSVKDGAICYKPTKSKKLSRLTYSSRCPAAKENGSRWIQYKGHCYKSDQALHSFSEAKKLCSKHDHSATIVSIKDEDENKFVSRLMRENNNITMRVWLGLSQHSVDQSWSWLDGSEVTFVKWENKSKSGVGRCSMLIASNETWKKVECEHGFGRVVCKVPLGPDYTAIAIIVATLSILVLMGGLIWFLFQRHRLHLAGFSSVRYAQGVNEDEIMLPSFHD

B1: DM4-conjugated anti-LY75 monoclonal antibody 16A5 (CD205_A1) (antibody, V domains shown)
VH: EVQLVESGGGLVKPGGSLRLSCAASGFTYSNAWMSWVRQAPGKGLEWVGRIKSKTDGGTTDYAAPVQGRFTISRDDSKNTLYLQMNSLKTEDTAVYYCTIFGVVSFDYWGQGTLVTVSS
VL: DVQMTQSPSSLSASVGDRVTITCRASQSISDYLSWYQQRPGKAPNLLIYAASNLKTGVPSRFSGSGSGTDFTLTISTLQPEDFATYYCQQSYRSPWTFGQGTKVEIKR
modifications: antibody conjugated to the maytansinoid DM4; attachment residues not stated
With B1, the “EC50 (pM) of % Specific Death, Cell-Titer Glo, Raji cells, 96 hours” value stood at 728 pM and the “EC50 (pM) of % Specific Death, Cell-Titer Glo, THP1 cells, 96 hours” value came to 37.5 pM.

B2: DM4-conjugated anti-LY75 monoclonal antibody 8A3 (antibody, V domains shown)
VH: EVQLVESGGGLIQPGGSLRLSCAASGFTVSSNYMSWVRQAPGKGLEWVSVIYSGGSTYYTDSVKGRFTISRDNSKNTLYLQMNSLRAEDTAVYYCARDKSGWNGFDYWGQGTLVTVSS
VL: DVQMTQSPSSLSASVGDRVTITCRASQSVSTYLHWYQQKPGKAPKLLIYAASSLQGGLPSRFSGSGSGTDFTLTISSLQPEDFATYYCQQSSSTPLTFGGGTKVEITR
modifications: antibody conjugated to the maytansinoid DM4; attachment residues not stated
For the molecule B2, the “EC50 (pM) of % Specific Death, Cell-Titer Glo, Raji cells, 96 hours” value was determined as 1010 pM and the “EC50 (pM) of % Specific Death, Cell-Titer Glo, THP1 cells, 96 hours” value is 98.8 pM.

The record behind these values is US20240254238A1 (OXFORD BIOTHERAPEUTICS, published 2024).
